These sequences were tested on Escherichia coli TOP10 (assay: shrunken log2 fold change of peptide-encoding DNA abundance (4.5 h post-induction vs induction); higher = less antimicrobial activity (less host growth inhibition)). Settings: time post-induction: 4.5 h; library: site-saturation at positions 5, 18, 19, 20.
In the case of RRIRQRPPRLPRPRPRPMDAPRP, the “shrunken log2 fold change” value is reported as 0.05. For RRIRWRPPRLPRPRPRPKGTPRP, the “shrunken log2 fold change” value was -0.0654. In the case of RRIRFRPPRLPRPRPRPERFPRP, the “shrunken log2 fold change” value is reported as -0.104. In the case of RRIRDRPPRLPRPRPRPCWRPRP, the “shrunken log2 fold change” value is reported as 0.101. For RRIRLRPPRLPRPRPRPLKKPRP, the “shrunken log2 fold change” value was 0.162. In the case of RRIRKRPPRLPRPRPRPFHPPRP, the “shrunken log2 fold change” value is reported as -0.158. With RRIRTRPPRLPRPRPRPAMGPRP the “shrunken log2 fold change” value was 0.391. With RRIRFRPPRLPRPRPRPIWAPRP the “shrunken log2 fold change” value was 0.0219. With RRIRQRPPRLPRPRPRPVPTPRP the “shrunken log2 fold change” value was 0.0766. RRIRNRPPRLPRPRPRPCTEPRP was tested, and the “shrunken log2 fold change” value was -0.347. For RRIRDRPPRLPRPRPRPRRFPRP, the “shrunken log2 fold change” value was 0.212. With RRIRMRPPRLPRPRPRPKGEPRP the “shrunken log2 fold change” value was 1.27. For RRIRKRPPRLPRPRPRPDCDPRP, the “shrunken log2 fold change” value was 0.095. In the case of RRIRARPPRLPRPRPRPRTDPRP, the “shrunken log2 fold change” value is reported as 0.465. RRIRKRPPRLPRPRPRPGHNPRP was tested, and the “shrunken log2 fold change” value was -0.0457. With RRIRQRPPRLPRPRPRPMFRPRP the “shrunken log2 fold change” value was -0.0146. RRIRMRPPRLPRPRPRPEPAPRP was tested, and the “shrunken log2 fold change” value was 3.51. For RRIRTRPPRLPRPRPRPDERPRP, the “shrunken log2 fold change” value was -0.146. For RRIRRRPPRLPRPRPRPWWDPRP, the “shrunken log2 fold change” value was -0.0777. For RRIRERPPRLPRPRPRPLYAPRP, the “shrunken log2 fold change” value was -0.101. In the case of RRIRARPPRLPRPRPRPAQVPRP, the “shrunken log2 fold change” value is reported as 0.617. For RRIRMRPPRLPRPRPRPWLCPRP, the “shrunken log2 fold change” value was 0.219. RRIRPRPPRLPRPRPRPVDKPRP was tested, and the “shrunken log2 fold change” value was -0.153. In the case of RRIRIRPPRLPRPRPRPSFRPRP, the “shrunken log2 fold change” value is reported as -0.671. For RRIRLRPPRLPRPRPRPTNDPRP, the “shrunken log2 fold change” value was -0.288. In the case of RRIRFRPPRLPRPRPRPMIHPRP, the “shrunken log2 fold change” value is reported as -0.0677. RRIRRRPPRLPRPRPRPKLSPRP was tested, and the “shrunken log2 fold change” value was 0.262. RRIRVRPPRLPRPRPRPCAQPRP was tested, and the “shrunken log2 fold change” value was -0.186. In the case of RRIRARPPRLPRPRPRPCKQPRP, the “shrunken log2 fold change” value is reported as -0.0572. For RRIRTRPPRLPRPRPRPPRCPRP, the “shrunken log2 fold change” value was 0.391. RRIRRRPPRLPRPRPRPTYCPRP was tested, and the “shrunken log2 fold change” value was -0.0567. RRIRVRPPRLPRPRPRPNVWPRP was tested, and the “shrunken log2 fold change” value was 0.0782. With RRIRWRPPRLPRPRPRPWAVPRP the “shrunken log2 fold change” value was 0.0624. For RRIRRRPPRLPRPRPRPMWIPRP, the “shrunken log2 fold change” value was -0.137. In the case of RRIRDRPPRLPRPRPRPRFCPRP, the “shrunken log2 fold change” value is reported as 0.341. For RRIRDRPPRLPRPRPRPFKNPRP, the “shrunken log2 fold change” value was 0.11. For RRIRSRPPRLPRPRPRPSALPRP, the “shrunken log2 fold change” value was -0.0202. RRIRERPPRLPRPRPRPWIFPRP was tested, and the “shrunken log2 fold change” value was -0.101. For RRIRQRPPRLPRPRPRPTIRPRP, the “shrunken log2 fold change” value was -0.219. In the case of RRIRPRPPRLPRPRPRPWDVPRP, the “shrunken log2 fold change” value is reported as 0.308. RRIRIRPPRLPRPRPRPSEQPRP was tested, and the “shrunken log2 fold change” value was -0.0663. RRIRDRPPRLPRPRPRPLPIPRP was tested, and the “shrunken log2 fold change” value was 0.162. RRIRPRPPRLPRPRPRPEVHPRP was tested, and the “shrunken log2 fold change” value was 0.551. For RRIRDRPPRLPRPRPRPNIQPRP, the “shrunken log2 fold change” value was -0.0288. In the case of RRIRFRPPRLPRPRPRPPQVPRP, the “shrunken log2 fold change” value is reported as -0.00567. For RRIRWRPPRLPRPRPRPKHMPRP, the “shrunken log2 fold change” value was -0.063. RRIRQRPPRLPRPRPRPTQTPRP was tested, and the “shrunken log2 fold change” value was -0.00783. In the case of RRIRGRPPRLPRPRPRPITSPRP, the “shrunken log2 fold change” value is reported as 0.0724. For RRIRARPPRLPRPRPRPGGSPRP, the “shrunken log2 fold change” value was 0.535. In the case of RRIRERPPRLPRPRPRPMHHPRP, the “shrunken log2 fold change” value is reported as -0.394. For RRIRYRPPRLPRPRPRPYKKPRP, the “shrunken log2 fold change” value was -0.00195. With RRIRYRPPRLPRPRPRPAYSPRP the “shrunken log2 fold change” value was -0.267. In the case of RRIRCRPPRLPRPRPRPDHTPRP, the “shrunken log2 fold change” value is reported as -0.699. In the case of RRIRMRPPRLPRPRPRPIISPRP, the “shrunken log2 fold change” value is reported as -0.0891. For RRIRSRPPRLPRPRPRPVEAPRP, the “shrunken log2 fold change” value was -0.0651. RRIRGRPPRLPRPRPRPRYDPRP was tested, and the “shrunken log2 fold change” value was -0.057. In the case of RRIRHRPPRLPRPRPRPSCNPRP, the “shrunken log2 fold change” value is reported as -0.599. With RRIRSRPPRLPRPRPRPRPAPRP the “shrunken log2 fold change” value was 0.467. For RRIRVRPPRLPRPRPRPNLQPRP, the “shrunken log2 fold change” value was 0.0671. In the case of RRIRYRPPRLPRPRPRPLWRPRP, the “shrunken log2 fold change” value is reported as 0.0545. RRIRDRPPRLPRPRPRPHFHPRP was tested, and the “shrunken log2 fold change” value was -0.0477. RRIRPRPPRLPRPRPRPSQRPRP was tested, and the “shrunken log2 fold change” value was 0.229. In the case of RRIRQRPPRLPRPRPRPLTVPRP, the “shrunken log2 fold change” value is reported as 0.0325. RRIRNRPPRLPRPRPRPIGAPRP was tested, and the “shrunken log2 fold change” value was 0.235. For RRIRQRPPRLPRPRPRPKNFPRP, the “shrunken log2 fold change” value was -0.0816. For RRIRYRPPRLPRPRPRPSTGPRP, the “shrunken log2 fold change” value was -0.0197. With RRIRLRPPRLPRPRPRPDMSPRP the “shrunken log2 fold change” value was -0.428. RRIRFRPPRLPRPRPRPKRCPRP was tested, and the “shrunken log2 fold change” value was 0.383. For RRIRSRPPRLPRPRPRPKAKPRP, the “shrunken log2 fold change” value was 0.626. For RRIRTRPPRLPRPRPRPLDNPRP, the “shrunken log2 fold change” value was -0.396. With RRIRARPPRLPRPRPRPPSYPRP the “shrunken log2 fold change” value was 0.0336. RRIRTRPPRLPRPRPRPVLCPRP was tested, and the “shrunken log2 fold change” value was 0.0726. In the case of RRIRIRPPRLPRPRPRPPVWPRP, the “shrunken log2 fold change” value is reported as 0.187. For RRIRGRPPRLPRPRPRPHMYPRP, the “shrunken log2 fold change” value was -0.0997. In the case of RRIRIRPPRLPRPRPRPALVPRP, the “shrunken log2 fold change” value is reported as 0.228. RRIRGRPPRLPRPRPRPFFAPRP was tested, and the “shrunken log2 fold change” value was 0.747. With RRIRKRPPRLPRPRPRPPMYPRP the “shrunken log2 fold change” value was -0.0675. RRIRTRPPRLPRPRPRPMIRPRP was tested, and the “shrunken log2 fold change” value was -0.0798. In the case of RRIRYRPPRLPRPRPRPSITPRP, the “shrunken log2 fold change” value is reported as -0.857. For RRIRDRPPRLPRPRPRPLAMPRP, the “shrunken log2 fold change” value was 0.767. RRIRLRPPRLPRPRPRPYKRPRP was tested, and the “shrunken log2 fold change” value was -0.0165. In the case of RRIRGRPPRLPRPRPRPFHEPRP, the “shrunken log2 fold change” value is reported as -0.537. In the case of RRIRQRPPRLPRPRPRPPEPPRP, the “shrunken log2 fold change” value is reported as 0.834. For RRIRARPPRLPRPRPRPRGYPRP, the “shrunken log2 fold change” value was 0.166. For RRIRHRPPRLPRPRPRPCCAPRP, the “shrunken log2 fold change” value was -0.0125. With RRIRIRPPRLPRPRPRPLNMPRP the “shrunken log2 fold change” value was -0.528. For RRIRARPPRLPRPRPRPKLRPRP, the “shrunken log2 fold change” value was 0.178. For RRIRGRPPRLPRPRPRPVPHPRP, the “shrunken log2 fold change” value was -0.0133. In the case of RRIRERPPRLPRPRPRPTGMPRP, the “shrunken log2 fold change” value is reported as -0.128. With RRIRLRPPRLPRPRPRPELVPRP the “shrunken log2 fold change” value was 0.113. For RRIRTRPPRLPRPRPRPWGCPRP, the “shrunken log2 fold change” value was -0.151.
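Note: peptides expressed intracellularly from a pBAD plasmid library in pooled LB shake-flask culture, induced with 0.3% L-arabinose, DNA abundance read by NGS, three biological replicates, DESeq2 with apeglm shrinkage.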
